This is an account of results in publication PMC6642547, “HERA-GITRL activates T cells and promotes anti-tumor efficacy independent of FcγR-binding functionality” (Journal for Immunotherapy of Cancer, 2019).

For this assay, the target named is T1, HERA-GITRL (hexavalent TNF receptor agonist); single-chain GITRL-receptor-binding-domain fused to a silenced … (human, UniProt Q9UNG2 56-177; Q9UNG2 56-177; Q9UNG2 56-177).
T1 construct: glycine-serine based linker, 8 amino acids in length; GITRL (TNFSF18), human, second copy of E56-S177; GITRL (TNFSF18), human, third copy of E56-S177; also called hexavalent HERA-GITRL; scGITRL-RBD-Fc; not shown: Strep-Tag II, C-terminal, kept
T1 sequence (Q9UNG2 whole entry, the tested form may be a part, one chain of several): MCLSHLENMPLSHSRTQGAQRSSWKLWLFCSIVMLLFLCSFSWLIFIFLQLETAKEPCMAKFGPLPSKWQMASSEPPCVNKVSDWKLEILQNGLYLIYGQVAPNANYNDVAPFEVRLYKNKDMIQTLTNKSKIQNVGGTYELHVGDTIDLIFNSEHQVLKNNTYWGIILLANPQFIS
Nature of the assay: not stated; binding to and dissociation from the GITR-Fc receptors measured in real time, equilibrium binding constants (KD) calculated; instrument and who was immobilised not told in what was shown. The following applies: both partners purified.

B1: cynomolgus monkey GITR-Fc (Fc fusion)
chain: QRPTGGPGCGPGRLLLGTGKDARCCRIHPTRCCGDYQGEECCSEWDCVCVQPEFHCGNPCCTTCQHHPCPSGQGVQPQGKFSFGFRCVDCALGTFSRGHDGHCKPWTDCTQFGFLTVFPGNKTHNAVCVPGSPPAEPPG
What is called Kd is a measure of binding affinity in units of concentration. B1: the dissociation constant (Kd) was 0.602 nM.
